Source: article PMC5522078, “Discovery and characterization of small molecules targeting the DNA-binding ETS domain of ERG in prostate cancer” (Oncotarget, 2017)

Molecular target: T1, ERG-ETS domain (UniProt P11308 307-400)
T1 sequence: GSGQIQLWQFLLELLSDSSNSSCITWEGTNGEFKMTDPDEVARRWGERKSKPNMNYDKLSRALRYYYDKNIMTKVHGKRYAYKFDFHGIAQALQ
Assay: EMSA; no compound; 1 nM DNA; EMSA: protein stored in 20 mM sodium phosphate, 200 mM NaCl, 2 mM DTT, 0.1 mM EDTA, pH 6.5; reaction with 3% glycerol, 0.2 mg/mL BSA, 1 nM dsDNA, room temperature 1 h; 10% native gel run at 10 C
Details: protein: recombinant; tags: His6 removed by thrombin; label: Alexa-488; blunt

B1: ETS consensus GGAA probe (dsDNA)
DNA 1: CGGCCAAGCCGGAAGTGAGTG
DNA 2: CACTCACTTCCGGCTTGGCCG
- Kd: ~1 nM
